Data as given in patent US20170137533A1 (published 2017).

Key:
Assay in all cases: ForteBio
SC16.46 = molecular target: SC16.46
SC16.51 = molecular target: SC16.51
SC16.39 = molecular target: SC16.39
Sequence of SC16.39 (Q9NYJ7 27-492): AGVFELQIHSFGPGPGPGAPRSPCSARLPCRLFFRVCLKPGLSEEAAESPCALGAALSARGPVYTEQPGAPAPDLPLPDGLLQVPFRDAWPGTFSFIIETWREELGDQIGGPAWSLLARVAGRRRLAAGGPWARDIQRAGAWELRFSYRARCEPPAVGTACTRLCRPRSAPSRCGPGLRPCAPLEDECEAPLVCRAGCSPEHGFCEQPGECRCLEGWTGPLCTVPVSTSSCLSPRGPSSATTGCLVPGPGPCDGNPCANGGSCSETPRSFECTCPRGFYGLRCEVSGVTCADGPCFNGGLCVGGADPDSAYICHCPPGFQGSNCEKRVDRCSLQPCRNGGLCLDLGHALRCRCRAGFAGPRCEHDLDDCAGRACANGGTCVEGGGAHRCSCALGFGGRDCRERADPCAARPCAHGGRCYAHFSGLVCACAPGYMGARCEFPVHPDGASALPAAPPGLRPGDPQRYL

Sequence of SC16.51 (Q9NYJ7 27-492): as above
Sequence of SC16.46 (Q9NYJ7 27-492): as above

Kd (SC16.46): 0.5 nM
Kd (SC16.51): 2 nM
Kd (SC16.39): 1 nM
B1: DLL3 (ligand)
chain: not shown
